# Laboratory results taken from IntAct's records for PubMed 19448033.
# How the values were obtained:
# cipko_arath CIPK24 [1] = target: cipko_arath CIPK24 (UniProt Q9LDI3)
# cipko_arath CIPK24 [2] = target: cipko_arath CIPK24 (UniProt Q9LDI3); remark: listed apart in the source
# cipko_arath CIPK24, sequence (Q9LDI3 whole entry): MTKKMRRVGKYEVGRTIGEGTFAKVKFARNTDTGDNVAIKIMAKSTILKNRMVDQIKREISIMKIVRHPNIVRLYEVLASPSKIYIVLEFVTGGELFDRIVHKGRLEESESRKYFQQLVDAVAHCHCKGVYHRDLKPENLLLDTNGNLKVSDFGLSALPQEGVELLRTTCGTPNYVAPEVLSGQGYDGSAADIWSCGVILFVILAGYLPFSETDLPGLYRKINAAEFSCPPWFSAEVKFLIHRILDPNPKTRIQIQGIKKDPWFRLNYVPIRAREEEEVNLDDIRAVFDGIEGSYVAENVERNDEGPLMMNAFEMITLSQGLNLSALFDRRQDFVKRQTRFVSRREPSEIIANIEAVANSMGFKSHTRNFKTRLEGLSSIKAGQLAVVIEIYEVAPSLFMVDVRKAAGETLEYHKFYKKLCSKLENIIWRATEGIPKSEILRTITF
# Calcineurin B-like protein 10 (Arabidopsis thaliana (Mouse-ear cress)), Q7FRS8-2 S237A, sequence (Q7FRS8 other isoform, or with tags, fused parts or gaps S237A): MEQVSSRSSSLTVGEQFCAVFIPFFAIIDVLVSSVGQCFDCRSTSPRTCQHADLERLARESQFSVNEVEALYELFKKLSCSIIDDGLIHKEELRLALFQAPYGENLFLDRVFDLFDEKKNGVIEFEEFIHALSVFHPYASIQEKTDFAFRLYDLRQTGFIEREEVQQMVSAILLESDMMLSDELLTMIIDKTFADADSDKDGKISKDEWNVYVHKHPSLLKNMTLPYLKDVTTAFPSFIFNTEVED
# Calcineurin B-like protein 10 (Arabidopsis thaliana (Mouse-ear cress)), Q7FRS8-2 S237D, sequence (Q7FRS8 other isoform, or with tags, fused parts or gaps S237D): as the sequence (Q7FRS8 other isoform, or with tags, fused parts or gaps S237A) above
Substance,effect of a mutation on the interaction (cipko_arath CIPK24 [1]),effect of a mutation on the interaction (cipko_arath CIPK24 [2])
"Calcineurin B-like protein 10 (Arabidopsis thaliana (Mouse-ear cress)), Q7FRS8-2 S237A",disrupting interaction,decreasing interaction
"Calcineurin B-like protein 10 (Arabidopsis thaliana (Mouse-ear cress)), Q7FRS8-2 S237D",–,increasing interaction
